We go through one substance from article PMC9705314, “Characterization of a new potent and long-lasting single chain peptide agonist of RXFP1 in cells and in vivo translational models” (Scientific Reports, 2022).

One experiment has as its target rat RXFP1 (rat) (UniProt Q6R6I6).
In another experiment the target is human RXFP1 (human) (UniProt Q9HBX9).
human RXFP1 (human), sequence (Q9HBX9 whole entry): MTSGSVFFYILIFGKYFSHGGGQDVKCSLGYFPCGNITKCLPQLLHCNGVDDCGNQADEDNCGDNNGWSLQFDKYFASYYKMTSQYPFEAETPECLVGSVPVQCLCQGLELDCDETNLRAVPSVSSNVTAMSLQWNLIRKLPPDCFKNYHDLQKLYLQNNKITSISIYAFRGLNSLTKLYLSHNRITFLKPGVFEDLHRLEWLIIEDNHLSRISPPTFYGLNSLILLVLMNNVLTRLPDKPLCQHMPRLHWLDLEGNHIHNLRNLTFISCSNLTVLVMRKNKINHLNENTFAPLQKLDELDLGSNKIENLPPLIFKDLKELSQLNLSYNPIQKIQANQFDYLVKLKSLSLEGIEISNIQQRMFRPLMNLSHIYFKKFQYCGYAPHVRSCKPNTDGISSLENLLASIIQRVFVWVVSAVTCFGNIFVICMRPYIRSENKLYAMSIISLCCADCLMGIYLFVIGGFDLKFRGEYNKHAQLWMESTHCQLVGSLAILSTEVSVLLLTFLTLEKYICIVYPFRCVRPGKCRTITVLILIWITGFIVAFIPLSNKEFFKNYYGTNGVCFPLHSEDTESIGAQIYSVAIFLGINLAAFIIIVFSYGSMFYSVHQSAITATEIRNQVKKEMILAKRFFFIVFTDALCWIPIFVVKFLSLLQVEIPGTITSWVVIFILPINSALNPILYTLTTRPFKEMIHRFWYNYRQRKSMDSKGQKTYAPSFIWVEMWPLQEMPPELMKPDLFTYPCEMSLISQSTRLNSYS

rat RXFP1 (rat), sequence (Q6R6I6 whole entry): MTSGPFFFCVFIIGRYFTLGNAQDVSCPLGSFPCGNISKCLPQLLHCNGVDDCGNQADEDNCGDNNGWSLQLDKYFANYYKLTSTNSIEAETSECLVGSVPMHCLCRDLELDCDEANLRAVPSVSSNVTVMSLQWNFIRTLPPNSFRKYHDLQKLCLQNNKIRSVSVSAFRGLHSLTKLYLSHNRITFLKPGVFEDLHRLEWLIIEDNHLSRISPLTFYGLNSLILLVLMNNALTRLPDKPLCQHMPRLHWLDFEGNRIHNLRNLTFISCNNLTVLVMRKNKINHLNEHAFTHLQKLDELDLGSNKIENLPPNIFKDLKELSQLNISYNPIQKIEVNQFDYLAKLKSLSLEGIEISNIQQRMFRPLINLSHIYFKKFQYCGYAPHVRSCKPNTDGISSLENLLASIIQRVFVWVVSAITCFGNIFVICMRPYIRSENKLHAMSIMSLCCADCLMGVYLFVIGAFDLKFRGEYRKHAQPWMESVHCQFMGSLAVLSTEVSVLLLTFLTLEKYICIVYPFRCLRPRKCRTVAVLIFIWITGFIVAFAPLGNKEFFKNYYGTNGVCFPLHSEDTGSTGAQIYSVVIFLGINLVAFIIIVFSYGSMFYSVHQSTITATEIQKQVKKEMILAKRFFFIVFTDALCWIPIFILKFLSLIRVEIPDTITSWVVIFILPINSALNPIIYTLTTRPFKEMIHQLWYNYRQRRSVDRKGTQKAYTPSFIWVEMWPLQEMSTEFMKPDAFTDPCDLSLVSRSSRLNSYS

“Human recombinant relaxin (B-29/A-24) (ligand)”: in the experiment with rat RXFP1 (rat), the cAMP (HTRF) in HEK ratRXFP1 cells, EC50 stood at 1.4 nM and the cAMP (HTRF) in HEK ratRXFP1 cells, Emax (% of the 100 nM relaxin response) turned out to be 95.6%. Moreover, in the experiment with human RXFP1 (human), the cAMP (HTRF) in EA.hy926 hRXFP1 cells, EC50 turned out to be 0.06 nM; the cAMP (HTRF) in EA.hy926 hRXFP1 cells, Emax (% of the 100 nM relaxin response) came to 100%; the cAMP (HTRF) in OVCAR5 cells with endogenous human RXFP1, EC50 was determined as 1.8 nM; the cAMP (HTRF) in OVCAR5 cells with endogenous human RXFP1, Emax (% of the 100 nM relaxin response) was determined as 96.2%.
